Results as given in US20100041597A1, “PEPTIDES TARGETED TO PROTEIN KINASE C ISOFORMS AND USES THEREOF” (priority 2005, published 2010).

Assays:
PKC-ι = biological target: T1, PKC-ι (Homo sapiens, UniProt P41743); experiment: Competitive binding assay using cell extracts (Western blot); set-up: key: —: no detectable affinity; Low to very low affinity at 10X or 20X or both PRE concentrations in at least one cell line in the cell extract assay; Low affinity in purified isoform assay.; Moderate affinity at 10X or 20X or both PRE concentrations in at least one cell line in the cell extract assay.; High affinity at 10X or 20X or both PRE concentrations in at least one cell line in the cell extract assay; High affinity in purified isoform assay; conditions: Cell extract; PRE at 10X, 20X antibody concentration; Table 20
T1 construct: cytoplasmic extracts from different cell lines expressing appropriate PKC isoforms; endogenous in cells; host or cells: MDAMB231, LnCAP, H661, CCD16Lu, Du145, LS180 (human, from ATCC)
T1 sequence (P41743 1-596): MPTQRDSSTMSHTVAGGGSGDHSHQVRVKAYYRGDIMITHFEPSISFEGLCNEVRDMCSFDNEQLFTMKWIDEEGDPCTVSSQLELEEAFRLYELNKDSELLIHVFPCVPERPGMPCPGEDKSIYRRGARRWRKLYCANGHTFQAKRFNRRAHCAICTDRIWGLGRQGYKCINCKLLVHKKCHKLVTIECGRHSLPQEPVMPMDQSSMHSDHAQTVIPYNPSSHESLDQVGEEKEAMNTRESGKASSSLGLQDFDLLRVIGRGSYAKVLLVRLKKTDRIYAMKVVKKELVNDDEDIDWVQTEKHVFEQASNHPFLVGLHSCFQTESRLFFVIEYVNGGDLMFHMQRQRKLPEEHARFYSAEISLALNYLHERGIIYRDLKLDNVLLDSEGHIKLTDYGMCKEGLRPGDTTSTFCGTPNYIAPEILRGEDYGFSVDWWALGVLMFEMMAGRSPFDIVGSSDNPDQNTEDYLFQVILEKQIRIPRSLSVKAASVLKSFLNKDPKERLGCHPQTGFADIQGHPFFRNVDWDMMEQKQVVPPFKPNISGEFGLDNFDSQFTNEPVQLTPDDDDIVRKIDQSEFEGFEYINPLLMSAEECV
Experimental: (§1) Binding efficiency and specificity of the peptides PRE 2, 3, 4, 5, 6, 7, 8, 9, 10, 11, 12 and 13 (see Table 3) was also tested using cytoplasmic extracts from different cell lines expressing appropriate PKC isoforms as described for Example 1. Briefly, the protein cytoplasmic extracts were separated by electrophoresis and transferred onto nitrocellulose membranes by standard Western blotting procedures. The bands on the Western blots were detected with matching primary antibodies and alkaline phosphatase conjugated secondary antibody. The bands were then scanned and the relative density measurements obtained.
(§2) This procedure to assess the binding characteristics of the PREs is based on competition binding of the PRE with the primary anti-isoform PKC specific antibodies. The lower the measured band density, the greater the binding of the PRE to the PKC isoform. The PREs were added at 10 and 20 times (10×, 20×) the primary antibody concentration, according to classical competition between antigenic peptide and primary antibody. The following cell lines (obtained from the ATCC) were used: H661—NCI human lung carcinoma NSCLC; MDAMB231—human highly invasive breast cancer cell line from pleural effusion; LS180—human colon adenocarcinoma; LnCAP—human prostate adenocarcinoma; CCD16Lu—human lung fibroblasts; Du145—human prostate carcinoma brain metastasis, and T24—human bladder carcinoma.
(§3) In these cases, the 20× band density figures relative to control and 10× values were reliable.

PKC-ε = biological target: T2, PKC-ε (Homo sapiens, UniProt Q02156); experiment: as above; set-up: cytoplasmic extracts from different cell lines expressing appropriate PKC isoforms; endogenous in cells; host or cells: CCD16Lu, LnCAP, Du145, MDAMB231, LS180; key: —: no detectable affinity; Low to very low affinity at 10X or 20X or both PRE concentrations in at least one cell line in the cell extract assay; Low affinity in purified isoform assay.; Moderate affinity at 10X or 20X or both PRE concentrations in at least one cell line in the cell extract assay.; High affinity at 10X or 20X or both PRE concentrations in at least one cell line in the cell extract assay; High affinity in purified isoform assay; conditions: Cell extract; PRE at 10X, 20X antibody concentration; Table 20
T2 sequence (Q02156 1-737): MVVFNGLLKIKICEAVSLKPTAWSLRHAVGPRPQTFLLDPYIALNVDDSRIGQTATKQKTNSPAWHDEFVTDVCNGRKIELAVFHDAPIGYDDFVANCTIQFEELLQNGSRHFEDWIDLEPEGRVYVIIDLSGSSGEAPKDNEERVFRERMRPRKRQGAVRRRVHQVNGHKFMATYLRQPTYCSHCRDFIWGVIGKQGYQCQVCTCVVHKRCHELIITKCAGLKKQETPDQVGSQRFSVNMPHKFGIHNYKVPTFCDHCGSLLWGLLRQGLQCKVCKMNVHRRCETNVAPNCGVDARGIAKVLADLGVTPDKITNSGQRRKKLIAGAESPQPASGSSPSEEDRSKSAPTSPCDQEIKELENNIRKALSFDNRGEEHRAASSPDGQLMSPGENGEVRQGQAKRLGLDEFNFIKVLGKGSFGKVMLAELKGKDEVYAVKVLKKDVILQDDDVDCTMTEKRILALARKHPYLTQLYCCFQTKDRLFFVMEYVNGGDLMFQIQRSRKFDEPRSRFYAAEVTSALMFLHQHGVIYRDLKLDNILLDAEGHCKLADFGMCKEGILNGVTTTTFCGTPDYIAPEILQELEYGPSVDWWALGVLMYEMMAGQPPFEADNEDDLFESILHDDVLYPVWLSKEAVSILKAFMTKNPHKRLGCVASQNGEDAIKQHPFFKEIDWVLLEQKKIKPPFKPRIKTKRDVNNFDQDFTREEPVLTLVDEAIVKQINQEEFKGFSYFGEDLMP
Experimental: as §1, §2, §3

Substance	Affinity for PKC isoform ι (PKC-ι)	Affinity for PKC isoform ε (PKC-ε)
Ac-KDANQLIGISI-NH2 [PRE 6]	—	M
RRKKGGKDFVVKR [PRE 1]	—	
Ac-ISIGILQNADK-NH2 [PRE 7]	—	—
Ac-KDAQNLIGISI-NH2 [PRE 4, Ac-KDAQNLIGISI-NH2]	M/L	H/L
ILEDKGGDAQNLIGISI [PRE 8]		L
Ac-AKGIQEVKGGKDAQNLIGISI-NH2 [PRE 5]		L
Ac-AKGIQEVKGGDAQNLIGISI-NH2 [PRE 3]	L	L
Ac-isigilgnadk-NH2 [PRE 9]		M/L

The remaining lines, values ahead:

Affinity for PKC isoform ι (PKC-ι)	Affinity for PKC isoform ε (PKC-ε)	Substance
—	—	Ac-KDAQNLI-NH2 [PRE 12]
	M/L	Ac-ISIGILNQADK-NH2 [PRE 10]
	—	Ac-RDAQNLIGISI-NH2 [PRE 11]
—	—	Ac-RDAQNLI-NH2 [PRE 13]
